Measurements reported in paper PMC5899157, “Directed evolution of broadly crossreactive chemokine-blocking antibodies efficacious in arthritis” (Nature Communications, 2018).

How the values were obtained:
[1] = biological target: T1, mCXCL5 displayed on the surface of yeast as N-terminal fusion of Aga2p (mouse, UniProt P50228); test: flow cytometry on cells; CXC chemokine displayed on yeast (CXCL-Aga2p) titrated with soluble SA-antibody fusions bearing His6, 10 pM to 20 μM, overnight at 4 °C, PBSA washes, anti-His6 detection, binding/display MFI; details: one partner purified
T1 construct: murine CXCL5, active processed form; Construct CXCL-(G3)-c-myc-Aga2p; also called ^NCXCL-Aga2p^C; not shown: c-myc, C-terminal, kept; Aga2p, C-terminal, kept

[2] = biological target: T2, wild-type hCXCL1 displayed on the surface of yeast as N-terminal fusion of Aga2p (human, UniProt P09341); test: as above; details: one partner purified
T2 construct: human CXCL1, active processed form; Construct CXCL-(G3)-c-myc-Aga2p; also called hCXCL1^WT; ^NhCXCL1^WT-Aga2p^C; not shown: c-myc, C-terminal, kept; Aga2p, C-terminal, kept

[3] = biological target: T3, mCXCL1 displayed on the surface of yeast as N-terminal fusion of Aga2p (mouse, UniProt P12850); test: as above; details: one partner purified
T3 construct: murine CXCL1, active processed form; Construct CXCL-(G3)-c-myc-Aga2p; also called ^NCXCL-Aga2p^C; not shown: c-myc, C-terminal, kept; Aga2p, C-terminal, kept

[4] = biological target: T4, mCXCL3 displayed on the surface of yeast as N-terminal fusion of Aga2p (mouse, UniProt Q6W5C0); test: as above; details: one partner purified
T4 construct: murine CXCL3, active processed form; Construct CXCL-(G3)-c-myc-Aga2p; also called ^NCXCL-Aga2p^C; not shown: c-myc, C-terminal, kept; Aga2p, C-terminal, kept

[5] = biological target: T5, mCXCL2 displayed on the surface of yeast as N-terminal fusion of Aga2p (mouse, UniProt P10889); test: as above; details: one partner purified
T5 construct: murine CXCL2, active processed form; Construct CXCL-(G3)-c-myc-Aga2p; also called ^NCXCL-Aga2p^C; not shown: c-myc, C-terminal, kept; Aga2p, C-terminal, kept

[6] = biological target: T6, biotinylated hCXCL8 (^NCXCL-G2-AviTag^C) (human, UniProt P10145, biotin on the defined lysine of the AviTag (BirA)); test: flow cytometry on cells; competition: biotinylated chemokine at its EC50 with varying antagonist (0.3 nM to 3 μM; 0.003 to 30 μM for SA157*) on HEK293 cells expressing CXCR1 or CXCR2; the antagonist and the chemokine; details: both partners purified
T6 construct: human CXCL8, active form; Which processed form of CXCL8 (72 or 77 residues) was made is only in Supplementary Data 1; not shown: AviTag, C-terminal, kept; Fc (murine IgG2 CH2 and CH3), N-terminal, cleaved; His6, N-terminal, cleaved

CCL28 = biological target: T7, CCL28 (human, UniProt Q9NRJ3); test: flow cytometry on cells; polyreactivity test: scFv displayed on yeast, single concentration (2 μM) of soluble protein, detection with streptavidin or anti-His6; details: one partner purified
T7 construct: CC chemokine CCL28; Detected with streptavidin or anti-His6

CCL20 = biological target: T8, CCL20 (Homo sapiens (assumed; species not …, UniProt P78556); test: as above; details: one partner purified
T8 construct: CC chemokine CCL20; Detected with streptavidin or anti-His6

CCL22 = biological target: T9, CCL22 (human, UniProt O00626); test: as above; details: one partner purified
T9 construct: CC chemokine CCL22; Detected with streptavidin or anti-His6

chemotactic factor C5a = biological target: T10, chemotactic factor C5a (Homo sapiens (assumed; species not …, UniProt P01031); test: as above; details: one partner purified
T10 construct: C5a, the chemotactic fragment cut from complement C5; Detected with streptavidin or anti-His6

[7] = biological target: T11, hCXCL1 fused to the N-terminus of mouse serum albumin (human, UniProt P09341); test: flow cytometry on cells; scFv displayed on yeast (Aga2p fusion) titrated with soluble CXCL-SA fusions bearing His6, 10 pM to 2 μM, overnight at 4 °C, PBSA washes, anti-His6 detection, binding/display MFI; details: one partner purified
T11 construct: human CXCL1, active protein form; CXCL-SA fusions eluted as dimers to tetramers on SEC; also called ^NCXCL-SA^C; source: HEK293 (suspension-adapted), transient transfection, purified (Ni Sepharose excel, SEC); not shown: mouse serum albumin, C-terminal, kept; His6, C-terminal, kept

[8] = biological target: T12, mCXCL1 fused to the N-terminus of mouse serum albumin (mouse, UniProt P12850); test: as above; details: one partner purified
T12 construct: murine CXCL1, active protein form; also called ^NCXCL-SA^C; source: HEK293 (suspension-adapted), transient transfection, purified (Ni Sepharose excel, SEC); not shown: mouse serum albumin, C-terminal, kept; His6, C-terminal, kept

B1: SA138, mouse serum albumin fused to the CK138 single-chain variable antibody fragment (scFv, V domains shown)
VH: EVQLVESDGGLVQPGGSLRLSCAASGFNLSYYGMHWVRQAPGKGLEWVAYIASYPGYTSYADSVKGRFTISADTSKNTAYLQMNSLRAEDTAVYYCARSGYSYSPYYSWFSAGMNYWGQGALVTVSS
VL: AIQMTRSPSSLSASVGDRVTITCRASQYHDGSAAWYQQKPGKAPKLLIYGASYLYSGVPSRFSGSRSGTDFTLTISSLQPEDFATYYCQQSSYSLITFGQGTKVEIK
notes: VL of CK138, as in m2; linker between VL and VH; the scFv was amplified from the pCT-CON vector; VH of CK138, as in m2; Construct SA-(G4S)3-scFv-G4S-His6; also called ^NSA-scFv^C; source: HEK293 (suspension-adapted), transient transfection, purified (Ni Sepharose excel, SEC); not shown: mouse serum albumin, N-terminal, kept; His6, C-terminal, kept
binding result [1]: binds | Kd [2]: ~100 nM | binding result [3]: binds | binding result [4]: binds | binding result [5]: binds | binding result [6]: binds

B2: SA157*, separate mouse serum albumin fusions of the VL and VH domains of CK157 mixed in equimolar amounts (other)
VH: EVQLVESGGGLVQPGGSLRLSCAASGSNPYYYGGTHWVRQAPGEELEWVASIGSYPGYTDYADSVKGRFTISADTSKNTAYLQMNSLRAEDTAVYYCARHYYWYDATDYWGQGTLVTVSS
VL: DIQMTQSPSSLSASVGDRVTITCRASQSYGGVAWYQQKPGKAPKLLIYSASYLYSGVPSRFSGSRSGTDFTLTISSLQPEDFATYYCQQPSHLITFGQGTEVEIK
notes: VL of CK157, as in m3; VH of CK157, as in m3; Constructs SA-(G4S)3-VL-G4S-His6 and SA-(G4S)3-VH-G4S-His6; not a single chain with a linker; also called ^NSA-VL^C and ^NSA-VH^C; not shown: mouse serum albumin, N-terminal, kept; His6, C-terminal, kept
Kd [2]: ~1500 nM | binding result [6]: binds

B3: CK157 single-chain variable antibody fragment, displayed on yeast (scFv, V domains shown)
VH: B2 VH
VL: B2 VL
notes: VL of CK157 (CK2 lineage, made by combinatorial site-directed mutagenesis); flexible linker between VL and VH; VH of CK157; Construct Aga2p-HA-(G4S)3-VL-linker-VH-c-myc; VL-VH orientation; not shown: Aga2p, N-terminal, kept; HA, N-terminal, kept; c-myc, C-terminal, kept
binding result (CCL28): binds | binding result (CCL20): binds | binding result (CCL22): binds | binding result (chemotactic factor C5a): binds

B4: CK129 single-chain variable antibody fragment, displayed on yeast (scFv, V domains shown)
VH: EVQLVESGGGLVQPGGSLRLSCAASGFNISSYGSMHWVRQAPGKGLEWVASIYPYSSSTYYADSVKGRFTISADTSKNTAYLQMNSLRAEDTAVYYCARGYGPWYAYSYFALDYWGQGTLVTVSS
VL: DIQMTQSPSPLSASVGDRVTITCRASQYGGYVAWYQQKPGKAPKLLIYGASLLYSGVPSRFSGGRSGTDFTLTISSLQPEDFATYYCQRGHALITFGQGTKVEIE
notes: VL of CK129 (CK4 lineage, synthetic library G); flexible linker between VL and VH; VH of CK129; Construct Aga2p-HA-(G4S)3-VL-linker-VH-c-myc; VL-VH orientation; not shown: Aga2p, N-terminal, kept; HA, N-terminal, kept; c-myc, C-terminal, kept
Kd [7]: 0.79 nM | Kd [8]: 0.93 nM

B5: SA129, mouse serum albumin fused to the CK129 single-chain variable antibody fragment (scFv, V domains shown)
VH: B4 VH
VL: B4 VL
notes: VL of CK129, as in m1; linker between VL and VH; the scFv was amplified from the pCT-CON vector; VH of CK129, as in m1; Construct SA-(G4S)3-scFv-G4S-His6; also called ^NSA-scFv^C; source: HEK293 (suspension-adapted), transient transfection, purified (Ni Sepharose excel, SEC); not shown: mouse serum albumin, N-terminal, kept; His6, C-terminal, kept
Kd [2]: ~2.5 nM | binding result [4]: no binding (tested: up to 20 μM (methods))
